According to paper PMC4899871 (2016):

B1: GST-HA-ATG16L1-231–607 T300, purified from human cells [human] / TMEM59 263–281 peptide, wild type (19-amino acid peptide that includes the ATG16L1-binding motif) [modified: Immobilised through the N-terminus by a long spacer (Tds). Some … (parent complex)
chain 1: PLPVEQDDDIEVIVDETSDHTEETSPVRAISRAATKRLSQPAGGLLDSITNIFGRRSVSSFPVPQDNVDTHPGSGKEVRVPATALCVFDAHDGEVNAVQFSPGSRLLATGGMDRRVKLWEVFGEKCEFKGSLSGSNAGITSIEFDSAGSYLLAASNDFASRIWTVDDYRLRHTLTGHSGKVLSAKFLLDNARIVSGSHDRTLKLWDLRSKVCIKTVFAGSSCNDIVCTEQCVMSGHFDKKIRFWDIRSESIVREMELLGKITALDLNPERTELLSCSRDDLLKVIDLRTNAIKQTFSAPGFKCGSDWTRVVFSPDGSYVAAGSAEGSLYIWSVLTGKVEKVLSKQHSSSINAVAWSPSGSHVVSVDKGCKAVLWAQY
chain 2: TAVEQYVPSEKLSIYGDLE
B2: GST-HA-ATG16L1-320–607 (recombinant WD40 domain fused to GST and the HA tag) [human] / TMEM59 263–281 peptide, wild type (19-amino acid peptide that includes the ATG16L1-binding motif) [modified: Immobilised through the N-terminus by a … (parent complex)
chain 1: AHDGEVNAVQFSPGSRLLATGGMDRRVKLWEVFGEKCEFKGSLSGSNAGITSIEFDSAGSYLLAASNDFASRIWTVDDYRLRHTLTGHSGKVLSAKFLLDNARIVSGSHDRTLKLWDLRSKVCIKTVFAGSSCNDIVCTEQCVMSGHFDKKIRFWDIRSESIVREMELLGKITALDLNPERTELLSCSRDDLLKVIDLRTNAIKQTFSAPGFKCGSDWTRVVFSPDGSYVAAGSAEGSLYIWSVLTGKVEKVLSKQHSSSINAVAWSPSGSHVVSVDKGCKAVLWAQY
chain 2: TAVEQYVPSEKLSIYGDLE

Variants of: B1
Assay: peptide microarray; probe purified from human cells; mean ± s.d., n=9 replicas; parent: 100; read off a plot

Q: With chain 2 Y15A as the variant, how does the percent of parent read?
A: ~10 % of WT peptide (OD635, normalized values)

Q: How did the percent of parent turn out when chain 2 V7A was run?
A: ~140 % of WT peptide (OD635, normalized values)

Q: How did the percent of parent turn out when chain 2 G16A was run?
A: ~160 % of WT peptide (OD635, normalized values)

Q: For chain 2 K11A, which percent of parent is on record?
A: ~96 % of WT peptide (OD635, normalized values)

Q: chain 2 Y6A was tested. Which percent of parent did it give?
A: ~45 % of WT peptide (OD635, normalized values)

Q: How did the percent of parent turn out when chain 2 L18A was run?
A: ~19 % of WT peptide (OD635, normalized values)

Q: Which percent of parent does the source give for chain 2 Y6A, chain 2 E10A, chain 2 Y15A, chain 2 L18A here?
A: ~3 % of WT peptide (OD635, normalized values)

Q: Which percent of parent does the source give for chain 2 E10A here?
A: ~130 % of WT peptide (OD635, normalized values)

Variants of: B1
Assay: peptide microarray; probes purified from human cells; mean ± s.d., n=54; values normalised to the A300 ligand (= 100); parent: 160; read off a plot

Q: Which response does the source give for chain 1 T70A here?
A: ~100 OD635, normalized values (% of the A300 ligand signal)

Variants of: B1
Assay: peptide microarray; probe purified from human cells; mean ± s.d., n=9 replicas; parent: 9.3e+03; read off a plot

Q: chain 2 Y6A, chain 2 E10A, chain 2 Y15A, chain 2 L18A was tested. Which response did it give?
A: ~400 a.u. (OD635)

Variants of: B2
Assay: peptide microarray; probe expressed in bacteria; mean ± s.d., n=9 replicas; parent: 100; read off a plot

Q: For chain 2 Y6A, chain 2 E10A, chain 2 Y15A, chain 2 L18A, which percent of parent is on record?
A: ~2.5 % of WT peptide (OD635, normalized values)
